Laboratory results reported in publication PMC11847541, “Liver fatty acid binding protein FABP1 transfers substrates to cytochrome P450 4A11 for catalysis” (The Journal of Biological Chemistry, 2025).
pKd: −log10 of the molar value.

Tests used:
FABP1 = target: T1, FABP1 (Homo sapiens, UniProt P07148); set-up: method as in PMID 10852718; conditions: ADIFAB system; cited from earlier work
T1 construct: GST (N, cleaved yes); made in house; host or cells: Escherichia coli DH5α
T1 sequence (P07148 with tags, fused parts or gaps): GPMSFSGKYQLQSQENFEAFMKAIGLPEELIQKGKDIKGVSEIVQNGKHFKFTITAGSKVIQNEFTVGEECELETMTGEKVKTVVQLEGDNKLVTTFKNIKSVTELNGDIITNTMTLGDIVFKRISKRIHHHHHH

P450 4A11 = target: T2, P450 4A11 (Homo sapiens, UniProt Q02928); test: Alexa-FABP1 and P450 4A11 association kinetics (stopped-flow fluorescence); assay type: binding
T2 construct: made in house; host or cells: E. coli
T2 sequence (Q02928 5-519): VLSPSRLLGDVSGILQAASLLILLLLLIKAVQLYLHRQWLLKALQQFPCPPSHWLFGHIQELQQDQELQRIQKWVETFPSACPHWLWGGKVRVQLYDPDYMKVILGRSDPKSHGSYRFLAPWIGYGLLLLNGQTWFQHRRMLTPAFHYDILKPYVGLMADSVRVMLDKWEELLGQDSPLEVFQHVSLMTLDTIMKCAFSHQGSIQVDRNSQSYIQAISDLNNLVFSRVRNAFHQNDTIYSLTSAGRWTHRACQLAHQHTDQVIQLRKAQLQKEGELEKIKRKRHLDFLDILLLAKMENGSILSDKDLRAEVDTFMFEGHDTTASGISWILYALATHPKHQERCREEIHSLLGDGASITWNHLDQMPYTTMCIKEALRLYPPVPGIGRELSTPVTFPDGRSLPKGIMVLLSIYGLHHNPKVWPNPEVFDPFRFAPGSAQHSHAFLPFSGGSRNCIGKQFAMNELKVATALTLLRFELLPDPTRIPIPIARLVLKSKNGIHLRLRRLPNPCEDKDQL
T2 sequence (P07148 with tags, fused parts or gaps partner): T1 sequence (P07148 with tags, fused parts or gaps)
Experimental: We then investigated whether the rate of protein–protein association could be estimated using our fluorescent construct. A solution of Alexa-FABP1 (125 nM final concentration) was rapidly mixed with P450 4A11 (125 Nm final concentration), and Alexa-488 fluorescence was monitored over time. The data were fit to a single exponential equation and yielded an association rate of 2.0 ± 0.2 s^−1 (Fig. 10B).
To estimate a rate of interaction for FABP1 and P450, we loaded the protein–protein binding data (Fig. 10B) and fit the data to a simple model, E+F↔EF , as described in the Experimental procedures section. The software fit a kon rate of 2.0 × 10^7 M^−1 s^−1, close to that estimated by using the extracted binding rate ∼2 s^−1 at the concentration (0.125 μM) of either reaction component (i.e., 2 s^−1/0.125 μM = 16 μM^−1 s^−1 = 1.6 × 10^7 M^−1 s^−1).
Mixing solutions (2 ml) of (A) Alexa-FABP1 (0.25 μM [estimated by A280 prior to conjugation reaction, accounting for dilution, and assuming no protein loss during the reaction as described earlier]) and (B) P450 4A11 (0.25 μM) were prepared in potassium phosphate buffer (100 mM, pH 7.4) and loaded into the stopped-flow spectrofluorometer described earlier. The instrument (1.24 mm slit width) was set with an excitation wavelength of 470 nm and Oriel end-on filter for emission >495 nm. The fluorescence maximum of Alexa-FABP1 is 510 nm as described earlier, and stimulation is observed upon protein–protein binding (see “Titrations of Alexa-FABP1 with P450 4A11”). At least six replicate measurements were recorded, the spectra were processed such that the fluorescence gain (from DAUDA binding) began at an (x, y) intercept of (0, 0), and the spectra were averaged. A smoothing factor of 0.4 was applied to the data (in Microsoft Excel), and the resulting curve was fit to a single exponential plot in GraphPad Prism, and the rate of association was extracted. The data were loaded into KinTek Explorer and fit to a minimal kinetic model of protein–protein association (i.e., E+F↔EF ), and a second-order rate constant for the association was extracted.

Compound | pKd (FABP1) | rate of protein–protein association (P450 4A11; Alexa-FABP1 0.125 μM, P450 4A11 0.125 μM, single exponential) [s⁻¹] | kon of FABP1–P450 4A11 association (k6) (P450 4A11; KinTek fit to E+F↔EF) | kon of FABP1–P450 4A11 association (P450 4A11; binding rate ∼2 s^−1 divided by 0.125 μM) [M⁻¹ s⁻¹] | koff of FABP1–P450 4A11 (k-6) (P450 4A11; calculated from kon and Kd)
CCCCCCCCCCCCCCCC(=O)O [Palmitate (C16), palmitate] | 7.22 |  |  |  | 
FABP1: delipidated recombinant liver fatty acid binding protein with C-terminal hexahistidine tag |  | ~2 | 2.0 × 10^7 (k6) M^−1 s^−1 | 1.6e+07 | 2.4 (k-6) s^−1
